Substitutions are numbered along the chain they refer to. Values belong to the binder of their own block, whether it stands above or below them.
Key:
[1] = molecular target: T1, human IL4 (human, UniProt P05112 25-153, biotinylated in the SPR and competition assays (sites not given)); experiment: cell-based or functional assay
T1 sequence: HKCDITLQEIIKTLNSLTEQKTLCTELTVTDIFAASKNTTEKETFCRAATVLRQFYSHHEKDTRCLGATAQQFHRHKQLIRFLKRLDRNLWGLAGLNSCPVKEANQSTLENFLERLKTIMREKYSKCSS

[2] = molecular target: T1, human IL4; experiment: binding to recombinant IL4; kinetic method not restated
[3] = molecular target: T2, human IL13 (human, UniProt P35225 35-146, biotinylated in the SPR assays (sites not given)); experiment: cell-based or functional assay
T2 sequence (P35225 other isoform, or with tags, fused parts or gaps limits assumed): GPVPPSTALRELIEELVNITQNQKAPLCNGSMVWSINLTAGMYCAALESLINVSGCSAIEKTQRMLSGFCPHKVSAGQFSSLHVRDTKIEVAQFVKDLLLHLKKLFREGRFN

[4] = molecular target: cyno IL13 (cynomolgus monkey, UniProt Q0PW92 21-132); experiment: cell-based or functional assay
cyno IL13, sequence (Q0PW92 entry or part of it): as the sequence (P35225 other isoform, or with tags, fused parts or gaps limits assumed) above, with G1S, R10K, M42V, S67N, H83R, L100V, R110Q counted along it

[5] = molecular target: T2, human IL13; experiment: cell-based or functional assay; remark: listed apart in the source
[6] = molecular target: T2, human IL13; experiment: SPR BIAcore, biotin-IL13 on SA chip, global fit
Experimental: Recombinant human IL13 (Peprotech) was minimally biotinylated on ice using sulfo-NHS-LCLC-Biotin and desalted into the experimental running buffer containing 10 mM HEPES, 150 mM NaCl, pH 7.4, 0.01% Tween-20, and 0.1 mg/mL BSA. Biotinylated IL13 was captured at three different surface densities (from about 150, 50, and 25 RU) onto three different BIAcore SA (streptavidin) sensor chips. Each binding protein sample was tested at 40 nM as the highest concentration in a 3-fold dilution series over the three different density IL13 surfaces. The dissociation phase for the highest concentration of the binding protein sample was monitored for one hour. The response data from each of the different density surfaces was globally fitted in order to extract estimates of the kinetic and affinity constants which are provided in Table 7 below.

[7] = molecular target: T2, human IL13; experiment: SPR ProteOn, biotin-hIL13 on streptavidin, 1:1 global fit
Experimental: Complete kinetic data describing binding of various engineered binding protein molecules to human IL13 was measured using a method similar to that described above for the single point affinity analysis. Briefly, streptavidin (Pierce) was immobilized to similar levels (˜1800 RUs) on all six channels of a ProteOn GLC chip via amine coupling (pH 5.0). Biotinylated hIL13 was captured at different surface densities (600˜100 RUs) on different channels. Protein binding was tested starting at 40 nM diluted in a 3-fold concentration series over the different density IL13 surfaces; a buffer sample was injected to monitor the baseline stability. Dissociation phases for all concentrations of each binding protein sample were monitored for one hour at a flow rate of 100 μl/min. Response data for all concentration series from the different density surfaces were globally fit to a 1:1 simple langmuir binding model to extract values of the kinetic (kₒₙ, koff) and affinity (KD) constants provided in Table 16.

[8] = molecular target: T3, human IL13 R130Q (human, UniProt P35225 35-146, biotinylated (sites not given)); experiment: Luminex competition, 80 pM biotin-IL13 R130Q binding to IL13Ra2-Fc beads
T3 construct: Peprotech; also called IL13R13Q; R111Q
T3 sequence (P35225 35-146 limits assumed, stated change not applied): as the sequence (P35225 other isoform, or with tags, fused parts or gaps limits assumed) above, with R110Q counted along it
Experimental: Binding protein inhibition of IL13 binding to Rα2 was assessed using IL13Rα2-Fc (R&D Systems) conjugated to carboxylated Luminex microspheres according to the manufacturer's protocol. For biotinylation of IL13, recombinant human IL13 R130Q (Peprotech) was biotinylated at a 4:1 ratio using EZ-Link NHS-LC-Biotin (Pierce, #21336) for 2 hours at RT. The protein was dialyzed in PBS overnight to remove excess biotinylation reagent. For neutralization experiments, 5000 IL13 Rα2-Fc conjugated beads in 50 μl were added to each well of a 96-well filter plate (Millipore). 50 μl of biotinylated human IL13 at 1 ng/ml (80 pM) was mixed with an appropriate dilution of binding protein in Luminex Assay Buffer (PBS, 1% BSA, pH 7.4). The plate was incubated for 1 hour at RT in the dark on a plate shaker, set to shake vigorously to avoid bead aggregation. The plate was washed 3 times with 150 μl of wash buffer (PBS, 1% BSA, pH 7.4, 0.05% Tween-20) using a vacuum manifold followed by the addition of 50 μl of Streptavidin PE at 25 μg/ml and incubated at RT for 20 minutes. The plates were washed again and 100 μl of sheath fluid was added and the plate was placed on the shaker for 1 minute. Plates were read using a Luminex® 100 system; data were plotted as a function of binding protein concentration. IC₅₀ values were determined by fitting the data to the equation for sigmoidal dose response using PRIZM software (GraphPAD PRIZM).

[9] = molecular target: T4, murine IL4 (mouse, UniProt P07750 21-140); experiment: affinity for mIL4, method and numbers not given
T4 construct: also called mIL4; mouse IL4
T4 sequence (looked up): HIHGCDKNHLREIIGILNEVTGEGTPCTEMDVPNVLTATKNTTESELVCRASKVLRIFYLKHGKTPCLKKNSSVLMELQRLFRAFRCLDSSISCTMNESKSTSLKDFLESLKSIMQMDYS

[10] = molecular target: T4, murine IL4; experiment: cell-based or functional assay
[11] = molecular target: T5, murine IL13 (mouse, UniProt P20109 21-131, limits assumed); experiment: cell-based or functional assay
T5 sequence (looked up): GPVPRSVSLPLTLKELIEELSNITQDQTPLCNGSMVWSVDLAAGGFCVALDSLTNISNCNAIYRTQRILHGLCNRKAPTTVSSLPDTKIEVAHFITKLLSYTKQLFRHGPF

[12] = molecular target: T1, human IL4; experiment: cell-based or functional assay; remark: listed apart in the source
[13] = molecular target: T1, human IL4; experiment: cell-based or functional assay; remark: listed apart in the source
[14] = molecular target: T1, human IL4; experiment: SPR ProteOn, biotin-IL4 on neutravidin chip, 1:1 fit
Experimental: Purified binders selected as “hits” were ranked by their affinity on a ProteOn XPR-36 instrument (Bio-Rad). ProteOn is an optical biosensor instrument that measures protein-protein interactions in real time, based on Surface Plasmon Resonance technology similar to Biacore (GE). A rapid experimental protocol was performed as follows: On a GLC sensor chip (Bio-Rad), Neutravidin (Thermo Scientific) was covalently immobilized to a density of >5000 RU using amine coupling chemistry as described by the manufacturer. On one flow cell, biotinylated IL4 (Peprotech) was immobilized to a level of 250 RU, while another flow cell was used as reference, with neutravidin immobilized only. […] The retrieved values were used to rank the AR proteins by their affinity.

[15] = molecular target: T1, human IL4; experiment: Luminex competition, 67 pM biotin-IL4 binding to IL4RA-Fc beads
Experimental: For biotinylation of IL4, recombinant human IL4 (Peprotech) was biotinylated at a 4:1 ratio using EZ-Link NHS-LC-Biotin (Pierce, #21336) for 2 hours at RT. The protein was dialyzed in PBS overnight to remove excess biotinylation reagent. Competition binding for cynomologous IL4 (SEQ ID NO: 5) was performed using the isolated protein biotinylated in the same manner.
AR protein inhibition of IL4 binding to IL4 RA was assessed using IL4 RA-Fc (R&D Systems), comprising the Gly24-His232 which represents the ECD (SEQ ID NO: 5) fused to a human IgGl-Fc and therefor a disulfide linked homodimer. The protein was conjugated to carboxylated Luminex microspheres according to the manufacturer's protocol. For neutralization experiments, 5000 IL4RA-Fc conjugated beads in 50 μl were added to each well of a 96-well filter plate (Millipore). Biotinylated human IL4 was mixed with an appropriate dilution of AR protein in Luminex Assay Buffer (PBS, 1% BSA, pH 7.4) to give a final concentration of 67 pM IL4. The plate was incubated for 1 hour at RT in the dark on a plate shaker, set to shake vigorously to avoid bead aggregation. The plate was washed twice with 150 μl of wash buffer (PBS, 0.1% BSA, pH 7.4, 0.05% Tween-20) using a vacuum manifold followed by the addition of 50 μl of Streptavidin PE at 25 μg/ml and incubated at RT for 20 minutes. The plates were washed again and 150 μl of sheath fluid was added and the plate was placed on the shaker for 5 minute. Plates were read using a Luminex® 100 system; data were plotted as a function of AR protein concentration. IC₅₀ values were determined by fitting the data to the equation for sigmoidal dose response using PRISM software (GraphPAD PRISM) (Table 6).

- IC50 STAT6 [1]: 1.4 pM
- Kd [2]: 1.8 pM
B1: C06_53G6v1 (designed binder)
chain: DLGKKLLEAARAGQDDEVRILMANGADVNATDDWGDTLLHLAATDGHLEIVEVLLKAGADVNANDAIGDTPLHLAALYGHLEIVEVLLKYGADVNATDLHGFTPLHLAAFWGHLEIVEVLLKHGADVNAQDKFGKTAFDISIDNGNEDLAEILQKLN

- STAT6 Phospho IC50 [3]: 17.4 pM
- TARC expression IC50 [3]: 64 pM
- Cyno IL13 STAT6 IC50 [4]: 96.4 pM
- HEK STAT6 IC50 [5]: 17.4 pM
- Kd [6]: 57.7 pM
- koff [6]: 5.74e-05 s⁻¹
- kon [6]: 995000 M⁻¹ s⁻¹
- Kd [7]: 24.9 pM
- IC50 [8]: 31 pM
B2: IL13 binding protein 6G9 (designed binder)
chain: DLGKKLLEAARAGQDDEVRILMANGADVNARDSYGSTPLHLAAREGHLEIVEVLLKYGADVNAKDMIGDTPLHLAAYRGHLEIVEVLLKNGADVNASDITGETPLHLAAQIGHLEIVEVLLKYGADVNAQDKFGKTAFDISIDNGNEDLAEILQKLN

- binding result [9]: binds
B3: C06-21H2 (designed binder)
chain: DLGEKLLEAARAGQDDEVRILMANGADVNAYDDDGMTPLHLAAKSGHLEIVEVLLKHGADVNAMDITGSAPLHLAADLGHLEIVEVLLKHGADVNAIDYLGATPLHLAATYGHPEIVEVLLKYGADVNAQDKFGKTAFDISIDNGNEDLAEILQKLN

- IC50 STAT6 [1]: 6.9 pM
- Kd [2]: 1.6 pM
B4: C06_44C12v2 (designed binder)
chain: DLGKKLLEAASAGQDDEVHILMANGADVNALDDSGYTPLHLAAEDGHLEIVEVLLKHGADVNAADRLGDTPLHLAAFVGHLEIVEVLLKAGADVNAVDLAGVTPLHVAAFYGHLEIVEVLLKAGADVNAQDKFGKTAFDISIDNGNEDLAEILQKLN

- IC50 (read off the curve); IL4 dependent HT2 proliferation assay, retentate sample (diamonds, solid line) [10]: ~40 pM
- IC50 (read off the curve); IL13 STAT6 activation assay, aerosolized sample (triangles) [11]: ~2000 pM
- IC50 (read off the curve); IL13 STAT6 activation assay, pre-nebulization sample (squares) [11]: ~1000 pM
- IC50 (read off the curve); IL13 STAT6 activation assay, retentate sample (diamonds) [11]: ~1000 pM
B5: 11G11-21H2 (designed binder)
chain: MRGSHHHHHHGSDLGKKLMEAARAGQDDEVRILMANGADVNAKDLFGITPLHLAAVYGHLEIVEVLLKHGADVNATDNWGSTPLHLAAQFGHLEIVEVLLKYGADVNAQDKFGKTAFDISIDNGNEDLAEILQKLGGGGSGGGGSGGGGSGGGGSRSDLGEKLLEAARAGQDDEVRILMANGADVNAYDDDGMTPLHLAAKSGHLEIVEVLLKHGADVNAMDITGSAPLHLAADLGHLEIVEVLLKHGADVNAIDYLGATPLHLAATYGHPEIVEVLLKYGADVNAQDKFGKTAFDISIDNGNEDLAEILQKLN

- inhibition of STAT6 (HEK-STAT6 cells), IC50 [12]: 3 pM
- A549 TARC Inhibition IC50 [13]: 174 pM
- HEK Stat6 Inhibition IC50 [13]: 1.4 pM
- Type 1 Complex inhibition IC50 [13]: 1.5 pM
- Kd [14]: 50 pM
- koff [14]: 4.61e-05 s⁻¹
- kon [14]: 922000 M⁻¹ s⁻¹
- IC50 [15]: 10.2 pM
B6: C06_28E5 (designed binder)
chain: DLGKKLLEAARAGQDDEVRILMANGADVNAADDSGITPLHLAAEDGHLEIVEVLLKYGADVNAQDNLGDTPLHLAAWTGHLEIVEVLLKNGADVNAYDISGITPLHLAAFYGHLEIVEVLLKHGADVNAQDKFGKTAFDISIDNGNEDLAEILQKLN
notes: ankyrin repeat protein; His-tagged, IMAC-purified; also called benchmark AR protein

- IC50 STAT6 [1]: 3.1 pM
- Kd [2]: 8.38 pM
B7: C06_28E5v1 (designed binder)
chain: B6 chain with Y57A, N90A

- STAT6 Phospho IC50 [3]: 2.5 pM
- TARC expression IC50 [3]: 19.6 pM
- Cyno IL13 STAT6 IC50 [4]: 98 pM
- HEK STAT6 IC50 [5]: 2.5 pM
- Kd [6]: 32.8 pM
- koff [6]: 5.3e-05 s⁻¹
- kon [6]: 1.62e+06 M⁻¹ s⁻¹
- Kd [7]: 16.8 pM
- IC50 [8]: 3.4 pM
B8: 7G11 (designed binder)
chain: DLGKKLLEAARAGQDDEVRILMANGADVNATDEFDSTPLHLAARHGHLEIVEVLLKYGADVNAADFIGDTPLHLAAYRGHLEIVEVLLKCGVDVNADDHGDTPLHLAASMGHLEIVEVLLKNGADVNAQDKFGKTAFDISIDNGNEDLAEILQKLN
notes: ankyrin repeat protein

From patent US20120277143A1 (Janssen / Centocor, published 2012)
